Target: 6HisRsmA (RsmAxcc) (Xanthomonas citri subsp. citri strain 306) (UniProt Q8PLP9)
Assay: EMSA
Conditions: 10 mM HEPES pH 7.3, 20 mM KCl, 1 mM MgCl2, 1 mM DTT, 5% glycerol, 0.1 µg/µL yeast tRNA, 20 U RNasin, 25 °C 20 min; 5% native PAGE

Chain of 6HisRsmA (RsmAxcc) (Xanthomonas citri subsp. citri strain 306) (Q8PLP9 whole entry): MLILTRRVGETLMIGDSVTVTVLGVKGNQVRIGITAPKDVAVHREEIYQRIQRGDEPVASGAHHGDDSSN

hrpG 54-189
binding signal (fold less shift than hrpG 1-189): 8

From publication PMC3937308
